Assay results reported in publication PMC3485151, “A Δ38 Deletion Variant of Human Transketolase as a Model of Transketolase-Like Protein 1 Exhibits No Enzymatic Activity” (PLoS ONE, 2012).

Target: the molecule itself
Test: SEC; analytical gel filtration, Superdex 200 10/30, 200 µL of 4 mg/mL protein in 50 mM glycyl-glycine pH 7.6, 500 mM NaCl, 6°C; apparent masses estimated from protein standards; semiquantitative

B1: human full-length transketolase (enzyme, UniProt P29401 1-623, looked up)
chain: MESYHKPDQQKLQALKDTANRLRISSIQATTAAGSGHPTSCCSAAEIMAVLFFHTMRYKSQDPRNPHNDRFVLSKGHAAPILYAVWAEAGFLAEAELLNLRKISSDLDGHPVPKQAFTDVATGSLGQGLGAACGMAYTGKYFDKASYRVYCLLGDGELSEGSVWEAMAFASIYKLDNLVAILDINRLGQSDPAPLQHQMDIYQKRCEAFGWHAIIVDGHSVEELCKAFGQAKHQPTAIIAKTFKGRGITGVEDKESWHGKPLPKNMAEQIIQEIYSQIQSKKKILATPPQEDAPSVDIANIRMPSLPSYKVGDKIATRKAYGQALAKLGHASDRIIALDGDTKNSTFSEIFKKEHPDRFIECYIAEQNMVSIAVGCATRNRTVPFCSTFAAFFTRAFDQIRMAAISESNINLCGSHCGVSIGEDGPSQMALEDLAMFRSVPTSTVFYPSDGVATEKAVELAANTKGICFIRTSRPENAIIYNNNEDFQVGQAKVVLKSKDDQVTVIGAGVTLHEALAAAELLKKEKINIRVLDPFTIKPLDRKLILDSARATKGRILTVEDHYYEGGIGEAVSSAVVGEPGITVTHLAVNRVPRSGKPAELLKMFGIDRDAIAQAVRGLITKA
notes: human transketolase (TKT, EC 2.2.1.1), full length, residues 1-623, expressed from a synthetic codon-optimized tkt gene in pET28a; Expressed and purified by the same protocol as TKTΔ38; also called TKT; full-length TKT; source: E. coli BL21*, purified (Ni-NTA, desalting column)
stoichiometry N: 2
